Measurements taken from the supplement of paper PMC9112550, “Optimization of the antimicrobial peptide Bac7 by deep mutational scanning” (BMC Biology, 2022).

System: Escherichia coli TOP10
Assay: shrunken log2 fold change of peptide-encoding DNA abundance (4.5 h post-induction vs induction); higher = less antimicrobial activity (less host growth inhibition)
Details: time post-induction: 4.5 h; library: site-saturation at positions 5, 18, 19, 20
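Also: peptides expressed intracellularly from a pBAD plasmid library in pooled LB shake-flask culture, induced with 0.3% L-arabinose, DNA abundance read by NGS, three biological replicates, DESeq2 with apeglm shrinkage.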

Sequence	shrunken log2 fold change
RRIRGRPPRLPRPRPRPAEYPRP	-0.187
RRIRVRPPRLPRPRPRPYDMPRP	-0.382
RRIRPRPPRLPRPRPRPPGVPRP	0.517
RRIRHRPPRLPRPRPRPFGIPRP	-0.0887
RRIRDRPPRLPRPRPRPVKNPRP	-0.0293
RRIRLRPPRLPRPRPRPEMMPRP	2.57
RRIRFRPPRLPRPRPRPLRRPRP	0.773
RRIRVRPPRLPRPRPRPWCDPRP	-0.394
RRIRARPPRLPRPRPRPGLVPRP	0.542
RRIRYRPPRLPRPRPRPMICPRP	-0.0731
RRIRNRPPRLPRPRPRPGYIPRP	-1.11
RRIRCRPPRLPRPRPRPKLGPRP	0.0989
RRIRERPPRLPRPRPRPICYPRP	-0.4
RRIRSRPPRLPRPRPRPTAHPRP	0.284
RRIRWRPPRLPRPRPRPRIDPRP	-0.0323
RRIRCRPPRLPRPRPRPSVDPRP	-0.139
RRIRIRPPRLPRPRPRPDVQPRP	-0.192
RRIRWRPPRLPRPRPRPDWLPRP	0.111
RRIRMRPPRLPRPRPRPKEHPRP	0.617
RRIRVRPPRLPRPRPRPPRKPRP	0.482
RRIRIRPPRLPRPRPRPWSQPRP	-0.738
RRIRTRPPRLPRPRPRPLQNPRP	0.163
RRIRQRPPRLPRPRPRPGRVPRP	0.422
RRIRFRPPRLPRPRPRPISKPRP	-0.0939
RRIRYRPPRLPRPRPRPDFLPRP	-0.542

Sequence	shrunken log2 fold change
RRIRVRPPRLPRPRPRPFRNPRP	-0.0529
RRIRLRPPRLPRPRPRPDPDPRP	-0.0677
RRIRLRPPRLPRPRPRPYGAPRP	-0.0327
RRIRARPPRLPRPRPRPLATPRP	0.647
RRIRSRPPRLPRPRPRPWWRPRP	-0.0239
RRIRSRPPRLPRPRPRPSAGPRP	0.191
RRIRLRPPRLPRPRPRPISNPRP	-0.17
RRIRNRPPRLPRPRPRPWPRPRP	-0.0347
RRIRSRPPRLPRPRPRPWHIPRP	-0.0156
RRIRLRPPRLPRPRPRPYWLPRP	-0.54
RRIRIRPPRLPRPRPRPQITPRP	-1.22
RRIRPRPPRLPRPRPRPSEVPRP	-0.079
RRIRERPPRLPRPRPRPAIGPRP	0.0473
RRIRGRPPRLPRPRPRPFNMPRP	-1.07
RRIRTRPPRLPRPRPRPRDSPRP	0.538
RRIRGRPPRLPRPRPRPKSDPRP	0.584
RRIRTRPPRLPRPRPRPSGMPRP	-0.34
RRIRGRPPRLPRPRPRPIWTPRP	0.352
RRIRARPPRLPRPRPRPHTGPRP	-0.365
RRIRLRPPRLPRPRPRPTDIPRP	-0.0682
RRIRRRPPRLPRPRPRPDWRPRP	0.36
RRIRNRPPRLPRPRPRPQLWPRP	-0.252
RRIRLRPPRLPRPRPRPKMMPRP	-0.167
RRIRPRPPRLPRPRPRPWYLPRP	-0.591
RRIRVRPPRLPRPRPRPAWQPRP	-0.00433

Sequence	shrunken log2 fold change
RRIRCRPPRLPRPRPRPNKCPRP	-0.279
RRIRMRPPRLPRPRPRPQGRPRP	0.113
RRIRVRPPRLPRPRPRPTPFPRP	0.279
RRIRGRPPRLPRPRPRPEGIPRP	-0.0235
RRIRRRPPRLPRPRPRPAKCPRP	0.0405
RRIRYRPPRLPRPRPRPEWAPRP	0.193
RRIRGRPPRLPRPRPRPPSIPRP	0.519
RRIRGRPPRLPRPRPRPCCMPRP	0.474
RRIRHRPPRLPRPRPRPYDYPRP	-0.276
RRIRHRPPRLPRPRPRPKAPPRP	0.0258
RRIRERPPRLPRPRPRPMWLPRP	-0.07
RRIRIRPPRLPRPRPRPRSIPRP	0.0721
RRIRIRPPRLPRPRPRPLCGPRP	-0.319
RRIRVRPPRLPRPRPRPETWPRP	0.0351
RRIRLRPPRLPRPRPRPRSTPRP	-0.00899
RRIRWRPPRLPRPRPRPPDVPRP	0.235
RRIRDRPPRLPRPRPRPSRMPRP	-0.0207
RRIRCRPPRLPRPRPRPRVSPRP	0.064
RRIRHRPPRLPRPRPRPYIEPRP	-0.68
RRIRLRPPRLPRPRPRPVMPPRP	-0.29
RRIRSRPPRLPRPRPRPWPYPRP	-0.03
RRIRRRPPRLPRPRPRPGMSPRP	0.226
RRIRPRPPRLPRPRPRPLMDPRP	-0.145
RRIRCRPPRLPRPRPRPLTIPRP	-0.66
RRIRQRPPRLPRPRPRPYYTPRP	-0.363

Sequence	shrunken log2 fold change
RRIRTRPPRLPRPRPRPPKCPRP	-0.339
RRIRDRPPRLPRPRPRPEHGPRP	0.0582
RRIRDRPPRLPRPRPRPMYGPRP	-0.0676
RRIRDRPPRLPRPRPRPLVEPRP	0.331
RRIRRRPPRLPRPRPRPGSVPRP	0.299
RRIRPRPPRLPRPRPRPFWCPRP	-0.0114
RRIRERPPRLPRPRPRPYLSPRP	-0.515
RRIRKRPPRLPRPRPRPISAPRP	0.164
RRIRKRPPRLPRPRPRPKEWPRP	0.222
RRIRMRPPRLPRPRPRPFNWPRP	-0.0926
RRIRMRPPRLPRPRPRPDEDPRP	-0.0149
RRIRVRPPRLPRPRPRPTLTPRP	-0.0107
RRIRYRPPRLPRPRPRPVTIPRP	-0.0242
RRIRGRPPRLPRPRPRPFHDPRP	-0.0838
RRIRVRPPRLPRPRPRPKDDPRP	0.0252
RRIRWRPPRLPRPRPRPAPKPRP	0.992
RRIRHRPPRLPRPRPRPIGVPRP	0.148
RRIRHRPPRLPRPRPRPRPSPRP	0.466
RRIRMRPPRLPRPRPRPTMIPRP	-0.185
RRIRERPPRLPRPRPRPGLKPRP	0.131
RRIRPRPPRLPRPRPRPTMKPRP	-0.179
RRIRDRPPRLPRPRPRPRNMPRP	-0.602
RRIRYRPPRLPRPRPRPYEGPRP	-0.00776
RRIRGRPPRLPRPRPRPLQNPRP	0.693
RRIRDRPPRLPRPRPRPHNYPRP	-0.423

Sequence	shrunken log2 fold change
RRIRTRPPRLPRPRPRPMKSPRP	-0.203
RRIRSRPPRLPRPRPRPHIPPRP	-0.836
RRIRGRPPRLPRPRPRPATGPRP	0.308
RRIRKRPPRLPRPRPRPFHEPRP	-0.154
RRIRKRPPRLPRPRPRPHQTPRP	0.202
RRIRIRPPRLPRPRPRPTHNPRP	-0.145
RRIRNRPPRLPRPRPRPFRFPRP	-0.199
RRIRARPPRLPRPRPRPMTFPRP	-0.191
RRIRTRPPRLPRPRPRPYYNPRP	-0.719
RRIRRRPPRLPRPRPRPNWKPRP	-0.0144
RRIRWRPPRLPRPRPRPQSDPRP	-0.239
RRIRNRPPRLPRPRPRPEYEPRP	-0.156
RRIRQRPPRLPRPRPRPQSRPRP	0.00465
RRIRQRPPRLPRPRPRPAVRPRP	-0.0154
RRIRTRPPRLPRPRPRPGSQPRP	0.0756
RRIRVRPPRLPRPRPRPVVHPRP	-0.0292
RRIRTRPPRLPRPRPRPKFRPRP	-0.204
RRIRSRPPRLPRPRPRPMCIPRP	-0.0138
RRIRHRPPRLPRPRPRPNSSPRP	-0.203
RRIRSRPPRLPRPRPRPGMNPRP	-0.249
RRIRKRPPRLPRPRPRPGPEPRP	1.1
RRIRWRPPRLPRPRPRPLDWPRP	0.355
RRIRMRPPRLPRPRPRPSCPPRP	-0.0916
RRIRTRPPRLPRPRPRPAVIPRP	0.0431
RRIRCRPPRLPRPRPRPNLQPRP	-0.506

Sequence	shrunken log2 fold change
RRIRERPPRLPRPRPRPVVCPRP	0.0991
RRIRPRPPRLPRPRPRPPMNPRP	-0.036
RRIRQRPPRLPRPRPRPATNPRP	-0.0811
RRIRNRPPRLPRPRPRPALMPRP	0.15
RRIRRRPPRLPRPRPRPYRWPRP	-0.356
RRIRMRPPRLPRPRPRPTYMPRP	-0.131
RRIRKRPPRLPRPRPRPRFEPRP	0.43
RRIRTRPPRLPRPRPRPWTVPRP	-0.0107
RRIRIRPPRLPRPRPRPTAAPRP	0.116
RRIRHRPPRLPRPRPRPTIRPRP	-0.689
RRIRARPPRLPRPRPRPRQNPRP	0.723
RRIRVRPPRLPRPRPRPYCNPRP	-0.501
RRIRLRPPRLPRPRPRPQHAPRP	-0.0395
RRIRMRPPRLPRPRPRPGCLPRP	0.503
RRIRSRPPRLPRPRPRPMTNPRP	-0.309
RRIRCRPPRLPRPRPRPHGSPRP	-0.0281
RRIRERPPRLPRPRPRPDSVPRP	-0.17
RRIRTRPPRLPRPRPRPQCCPRP	-0.0803
RRIRERPPRLPRPRPRPWKKPRP	-0.0959
RRIRMRPPRLPRPRPRPPTRPRP	1.25
RRIRCRPPRLPRPRPRPNHIPRP	-0.994
RRIRHRPPRLPRPRPRPHGQPRP	0.0111
RRIRTRPPRLPRPRPRPGRFPRP	-0.0311
RRIRIRPPRLPRPRPRPPFIPRP	-0.755
RRIRWRPPRLPRPRPRPTYQPRP	-0.325
